In PMC3515676:

Tests used:
Assay in all cases: purified protein
Assay type in all cases: biochemical, Danio rerio
[1] = system: C[C@H](CCC(=O)NCC(=O)O)[C@H]1CC[C@H]2[C@@H]3[C@H](O)C[C@@H]4C[C@H](O)CC[C@]4(C)[C@H]3CC[C@]12C; settings: 14 μM PAP[35S], 50 mM Taps pH 8.5, 28 °C, pH 8.5
[2] = system: C[C@H](CCC(=O)O)[C@H]1CC[C@H]2[C@@H]3[C@H](O)C[C@@H]4C[C@H](O)CC[C@]4(C)[C@H]3CC[C@]12C; settings: 14 μM PAP[35S], 50 mM Taps pH 8.5, 28 °C, pH 8.5
[3] = system: C[C@H](CCCO)[C@H]1CC[C@H]2[C@@H]3[C@H](O)C[C@H]4C[C@H](O)CC[C@]4(C)[C@H]3C[C@H](O)[C@]12C; settings: 14 μM PAP[35S], 50 mM Mes pH 6.0, 28 °C, pH 6.0
[4] = system: C[C@H](CCC(=O)O)[C@H]1CC[C@H]2[C@@H]3CC[C@@H]4C[C@H](O)CC[C@]4(C)[C@H]3CC[C@]12C; settings: 14 μM PAP[35S], 50 mM Taps pH 8.5, 28 °C, pH 8.5

Substance: Zebra danio SULT3 ST2 (ZF SULT3 ST2) (Danio rerio)
- Km [1]: 19.89 ± 1.32 µM
- Vmax [1]: 0.00097 µmol/min/mg
- Km [2]: 21.75 ± 2.74 µM
- Vmax [2]: 0.00075 µmol/min/mg
- Km [3]: 22.36 ± 1.47 µM
- Vmax [3]: 0.00254 µmol/min/mg
- Km [4]: 6.00 ± 0.55 µM
- Vmax [4]: 0.00051 µmol/min/mg
